These are literature values, as cited in article PMC3634455.

As a reminder, the Kd is a measure of binding affinity in units of concentration.

For one data set, the target named is tPA (Homo sapiens) (UniProt P00750).
For data set [1], the target named is plasminogen (Homo sapiens) (UniProt P00747).
Sequence of UniProt P00747 (P00747 20-810): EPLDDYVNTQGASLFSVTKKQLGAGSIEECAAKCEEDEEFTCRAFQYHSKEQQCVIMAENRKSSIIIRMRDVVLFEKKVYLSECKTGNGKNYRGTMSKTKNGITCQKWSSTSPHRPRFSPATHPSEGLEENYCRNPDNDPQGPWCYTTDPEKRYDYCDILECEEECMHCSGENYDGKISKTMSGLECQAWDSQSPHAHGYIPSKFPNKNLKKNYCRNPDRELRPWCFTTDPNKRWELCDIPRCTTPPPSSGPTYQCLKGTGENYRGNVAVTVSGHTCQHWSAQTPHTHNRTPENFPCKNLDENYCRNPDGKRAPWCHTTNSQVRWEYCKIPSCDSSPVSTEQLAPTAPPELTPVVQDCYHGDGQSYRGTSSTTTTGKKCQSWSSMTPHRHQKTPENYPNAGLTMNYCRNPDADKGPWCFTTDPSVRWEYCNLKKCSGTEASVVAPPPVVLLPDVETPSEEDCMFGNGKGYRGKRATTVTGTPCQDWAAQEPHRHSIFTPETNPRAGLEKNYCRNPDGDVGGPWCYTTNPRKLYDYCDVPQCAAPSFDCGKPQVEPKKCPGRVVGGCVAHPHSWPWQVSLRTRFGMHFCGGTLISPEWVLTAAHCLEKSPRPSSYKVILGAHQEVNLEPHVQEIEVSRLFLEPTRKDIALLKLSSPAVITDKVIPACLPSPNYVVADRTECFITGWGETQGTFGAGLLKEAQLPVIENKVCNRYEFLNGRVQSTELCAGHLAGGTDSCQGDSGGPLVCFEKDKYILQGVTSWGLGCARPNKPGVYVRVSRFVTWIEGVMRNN

Sequence of UniProt P00750 (P00750 36-562): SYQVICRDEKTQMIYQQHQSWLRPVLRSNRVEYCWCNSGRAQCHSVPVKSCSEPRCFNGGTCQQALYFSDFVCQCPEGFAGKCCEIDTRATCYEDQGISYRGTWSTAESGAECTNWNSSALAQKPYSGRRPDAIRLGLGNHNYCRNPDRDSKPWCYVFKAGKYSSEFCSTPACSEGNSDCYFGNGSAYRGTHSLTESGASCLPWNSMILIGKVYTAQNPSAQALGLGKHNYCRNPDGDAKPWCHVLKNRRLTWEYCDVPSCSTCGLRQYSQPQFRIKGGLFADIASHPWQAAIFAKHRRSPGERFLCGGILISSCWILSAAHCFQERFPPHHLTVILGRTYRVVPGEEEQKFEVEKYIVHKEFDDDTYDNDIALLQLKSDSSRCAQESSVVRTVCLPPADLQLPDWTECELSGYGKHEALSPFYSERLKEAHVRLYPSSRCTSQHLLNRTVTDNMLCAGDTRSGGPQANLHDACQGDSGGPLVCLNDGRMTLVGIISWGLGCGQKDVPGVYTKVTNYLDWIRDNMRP

As for “S100A10 (annexin A2 heterotetramer) (from UniProt P60903)”, the values for the Kd (in the data set with tPA (Homo sapiens); in data set [1]) were 680 nM and 110 nM, respectively.
